The text below walks through data of patent publication US6495137.

The target of assay [1] is bovine submaxillary mucin (BSM), TAG-72-positive (bovine). Put plainly: competition RIA, 125I-labeled nCC49 as competitor, BSM as target antigen. Further details: unit not given here.
For assay [2] the target is unchanged. Put plainly: relative affinity constant, competition RIA on BSM, Scatchard analysis.
For assay [3] the target is unchanged. Put plainly: radiolabeled antibody bound to BSM beads.

Where “and” joins values, the source holds several entries; their conditions need not be identical. Identical values can stand only once. A value given as a limit tells only on which side of the number the result lay.

B1: HuCC49* humanized CC49 monoclonal antibody (antibody, V domains shown)
VH: QVQLVQSGAEVVKPGASVKISCKASGYTFTDHAIHWVKQNPGQRLEWIGYFSPGNDDFKYNERFKGKATLTADTSASTAYVELSSLRSEDTAVYFCTRSLNMAYWGQGTLVTVSS
VL: DIVMSQSPDSLAVSLGERVTLNCKSSQSLLYSGNQKNYLAWYQQKPGQSPKLLIYWASARESGVPDRFSGSGSGTDFTLTISSVQAEDVAVYYCQQYYSYPLTFGAGTKLELK
The molecule B1 had an amount required for 50% competition in assay [1] of 45. Besides, the Ka in assay [2] was found to be 6e+07 M⁻¹. Moreover, the percent bound in assay [3] is > 85% and 85%.
